For this assay, the target named is recombinant human IL-17A (human) (UniProt Q16552). Kind of assay: cell-based or functional assay.
Chain of recombinant human IL-17A (human) (Q16552 20-155 limits assumed): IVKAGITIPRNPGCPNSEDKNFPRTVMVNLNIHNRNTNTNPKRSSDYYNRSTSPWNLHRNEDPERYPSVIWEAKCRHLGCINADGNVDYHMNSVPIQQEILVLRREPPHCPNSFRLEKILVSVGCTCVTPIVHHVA

For “human IL-17A receptor-Fc chimera (R&D Systems) (from UniProt Q96F46 33-320) (Fc fusion)”, the IC50 of inhibition of IL-17A induced IL-6 production in NHDF cells (IL-17A 50 ng/ml) was 1 nM; the IC50 value (nM), IL-6 production by NHDF cells with IL-17A (1 ng/ml) and TNF alpha is 0.61 nM.

(Values after patent US20160368957A1.)
